Measurements published in patent publication US20210388110A1 (published 2021).
Substitutions are numbered along the chain they refer to.

Target: T1, soluble human CD3ε chain (human, UniProt P07766 23-126, limits assumed)
T1 construct: the text says soluble human CD3ε chain; also called human CD3 epsilon chain
Experiment: SPR (Biacore)

T1 sequence (P07766 23-126 limits assumed): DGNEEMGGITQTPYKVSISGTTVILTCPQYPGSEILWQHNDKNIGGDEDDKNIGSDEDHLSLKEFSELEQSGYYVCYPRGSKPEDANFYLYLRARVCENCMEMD

B1: TR01H040-E22Hh/none-Hi-Kn010G3/TR01L009-k0 (antibody, human IgG1, kappa, L234A L235A, N297A)
heavy: QVQLVESGGGLVQPGRSLRLSCAASGFTFSNAWMHWVRQAPGKGLEWVAQIKDKSQNYATYYAESVKGRFTISRADSKNSIYLQMNSLKTEDTAVYYCRYVHYSASYGVDAWGQGTTVTVSSASTKGPSVFPLAPSSKSTSGGTAALGCLVKDYFPEPVTVSWNSGALTSGVHTFPAVLQSSGLYSLSSVVTVPSSSLGTQTYICNVNHKPSNTKVDKKVEPKSCDKTHTCPPCPAPEAAGGPSVFLFPPKPKDTLMISRTPEVTCVVVDVSHEDPEVKFNWYVDGVEVHNAKTKPREEQYASTYRVVSVLTVLHQDWLNGKEYKCKVSNKALPAPIEKTISKAKGQPREPQVYTLPPSRCELTKNQVSLSCAVKGFYPSDIAVEWESNGQPENNYKTTPPVLDSDGSFFLVSKLTVDKSRWQQGNVFSCSVMHEALHNHYTQKSLSLSPDYKDDDDK
chain: EPKSSDKTHTCPPCPAPELLGGPSVFLFPPKPKDTLMISRTPEVTCVVVDVSHEDPEVKFNWYVDGVEVHNAKTKPREEQYNSTYRVVSVLTVLHQDWLNGKEYKCKVSNKALPAPIEKTISKAKGQPREPQVCTLPPSRDELTKNQVSLWCLVKGFYPSDIAVEWESNGQPENNYKTTPPVLDSDGSFFLYSKLTVDKSRWQQGNVFSCSVMHEALHNRYTQKSLSLSP
light: DIVMTQSPLSLPVTPGEPASISCRSSQSLVHSNRNTYLHWYLQKPGQSPQLLIYKVSNRFRGVPDRFSGSGSGTDFTLKISRVEAEDVGVYYCGQGTQVPYTFGQGTKLEIKRTVAAPSVFIFPPSDEQLKSGTASVVCLLNNFYPREAKVQWKVDNALQSGNSQESVTEQDSKDSTYSLSSTLTLSKADYEKHKVYACEVTHQGLSSPVTKSFNRGEC
notes: single-arm
Question: For B1, which Kd is on record?
Answer: The Kd was 35.6 nM.

B2: TR01H040-E22Hh/none-Hi-Kn010G3/TR01L013-k0 (antibody, human IgG1, kappa, L234A L235A, N297A)
heavy: B1 heavy
chain: B1 chain
light: B1 light with R24Q, S25A, Q27E, L109V, K112E
notes: single-arm
Question: B2 was tested. Which Kd did it give?
Answer: Its Kd is 41.5 nM.

B3: TR01H040-E22Hh/none-Hi-Kn010G3/TR01L019-k0 (antibody, human IgG1, kappa, L234A L235A, N297A)
heavy: B1 heavy
chain: B1 chain
light: B1 light with R24Q, S25A, Q27E, L29P, R61S, G94Y
notes: single-arm
Question: With B3 as the binder, how does the Kd read?
Answer: The Kd was 3.2 nM.

B4: TR01H040-E22Hh/none-Hi-Kn010G3/TR01L018-k0 (antibody, human IgG1, kappa, L234A L235A, N297A)
heavy: B1 heavy
chain: B1 chain
light: B1 light with R24Q, S25A, Q27E, L29P, R61S
notes: single-arm
Question: Which Kd does the source give for B4 here?
Answer: Its Kd is 45.1 nM.

B5: TR01H040-E22Hh/none-Hi-Kn010G3/TR01L011-k0 (antibody, human IgG1, kappa, L234A L235A, N297A)
heavy: B1 heavy
chain: B1 chain
light: B1 light with R24Q, S25A, Q27E, L42Q, S48A, Q50R, L109V, K112E
notes: single-arm
Question: B5 was tested. Which Kd did it give?
Answer: The Kd was 35.7 nM.

B6: TR01H040-E22Hh/none-Hi-Kn010G3/TR01L015-k0 (antibody, human IgG1, kappa, L234A L235A, N297A)
heavy: B1 heavy
chain: B1 chain
light: B1 light with L29P, R61S
notes: single-arm
Question: With B6 as the binder, how does the Kd read?
Answer: Its Kd is 39.5 nM.

B7: TR01H040-E22Hh/none-Hi-Kn010G3/TR01L016-k0 (antibody, human IgG1, kappa, L234A L235A, N297A)
heavy: B1 heavy
chain: B1 chain
light: B1 light with L29P, R61S, G94Y
notes: single-arm
Question: How did the Kd turn out when B7 was run?
Answer: The Kd was 2.52 nM.

B8: TR01H040-E22Hh/none-Hi-Kn010G3/TR01L010-k0 (antibody, human IgG1, kappa, L234A L235A, N297A)
heavy: B1 heavy
chain: B1 chain
light: B1 light with L42Q, S48A, Q50R, L109V, K112E
notes: single-arm
Question: B8 was tested. Which Kd did it give?
Answer: Its Kd is 32.8 nM.

B9: TR01H042-E22Hh/none-Hi-Kn010G3/L0000-k0 (antibody, human IgG1, kappa, L234A L235A, N297A)
heavy: B1 heavy with L11V, R16G
chain: B1 chain
light: B1 light with L42Q, S48A, Q50R, R61S
notes: single-arm
Question: How did the Kd turn out when B9 was run?
Answer: The Kd was 44.8 nM.

B10: TR01H040-E22Hh/none-Hi-Kn010G3/TR01L012-k0 (antibody, human IgG1, kappa, L234A L235A, N297A)
heavy: B1 heavy
chain: B1 chain
light: B1 light with L109V, K112E
notes: single-arm
Question: B10 was tested. Which Kd did it give?
Answer: Its Kd is 42.2 nM.

B11: TR01H041-E22Hh/none-Hi-Kn010G3/L0000-k0 (antibody, human IgG1, kappa, L234A L235A, N297A)
heavy: B1 heavy with A111Y
chain: B1 chain
light: B1 light with L42Q, S48A, Q50R, R61S
notes: single-arm
Question: How did the Kd turn out when B11 was run?
Answer: Its Kd is 31.6 nM.
